± gives the uncertainty stated by the source.

The values below come from the supplement of paper PMC12042874.

The series in a line: amyloid nucleation score (Sup35N fusion, yeast selection) (log enrichment); library NNK1; higher = more nucleation; inactive = no reads after selection. The method in brief:
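DiMSum was used to calculate nucleation scores as log enrichment of output over input reads, centred on the mode score of non-aggregating sequences. Sequences with fewer than 100 input reads were not scored. Input and output came from Illumina sequencing of plasmid inserts in psi-negative yeast expressing peptides of 20 random codons fused to Sup35N, induced 24 hours with 100 μM copper sulfate and then grown 7 days at 30°C on medium lacking adenine and uracil.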

In the case of LLCLLYHAGGTKRGYTTWAS, the amyloid nucleation score is -0.133 ± 1.2. Next, DYLVQGLHILVKWGYDRTDG: -0.187 ± 0.5; RSCLMSC: 0.141 ± 0.54; PNNKE: 0.638 ± 0.33.

SLIKGSTKLPR registered an amyloid nucleation score of 0.273 ± 0.6. For TVVWFTLIFLSLESSCINSL, the amyloid nucleation score stood at 1.22 ± 0.2. Under HLINLSDEIQYSYCNKRMVS stands “inactive”; under LYFSTYVFLASTSGHLSRFD, -1.36 ± 2.1; under VLGDLVRFRAYASRAIMLSL, -0.11 ± 0.79. Next, CRLCVLCAMYGI: 0.939 ± 0.26. Next, KIMLSRMYNQYMGCQVKFW: -0.409 ± 0.51; KHCRVSPNVSECAFKGAMCL: 1.17 ± 0.63; WHFFVKKRVRCDSHSSMQWN: -0.677 ± 0.69.

VDVSNLKCLQE came in with an amyloid nucleation score of 0.335 ± 0.42. TFLWC came in with an amyloid nucleation score of 0.462 ± 0.4. Next, NDSACIRRSIGSHSFSSCSV: 0.766 ± 0.84; YFRYWNSLIGIKDSD: 1.17 ± 0.39. With GLCVMSYTVDSLLCKGIFR, the amyloid nucleation score entry was “inactive”.

Regarding ELFASTCGFYALHRLGSRPG, the amyloid nucleation score was 3.04 ± 0.092. Under PEARWWERMDKGCMKVFHFK stands 0.945 ± 0.44; under LSWIR, -0.09 ± 0.66; under MWVFKTFCRRQRASVPNSLG, 0.034 ± 0.27. For SWFKSWSPKALSARIGRVYL, the amyloid nucleation score is -0.176 ± 0.55. Under FHLPALTSSLPA stands 0.102 ± 0.35. Substance STMVCHDFLAMMGSCMGLCL gave an amyloid nucleation score of -0.406 ± 0.96. Under WHPYYIQVKGILALLSSVHH stands 3.18 ± 0.073. Next, NFMYTYTVTLRRGYGEVSCA: -0.071 ± 0.6; CLVYVQLWVARMSYPCVRFG: 0.214 ± 0.32; DFGLYLNNFCNGMHSFDLFN: -0.378 ± 0.19. With KYMTDIIT, the amyloid nucleation score was 0.413 ± 0.2.

NFAWYNSTQFITTCRVTYSE registered an amyloid nucleation score of 1.86 ± 0.17. Next, NYAYCSLVVEDSVK: 8.284 ± 0.063; AVRVTLKL: 1.31 ± 0.2. Next, IRTMSGNDKPI: -0.36 ± 0.33; WVSKNRSSFMGCSSFTATWT: 0.884 ± 0.69. Under ISFCGTRGFK stands 0.154 ± 0.75; under LPCLSMKVLDTNYNLPCSKN, -0.458 ± 0.32; under NASSLVRTDCHSMRKESSMR, 0.052 ± 0.4. Take ELSVRPCRVLYEHCGYRCEQ: the amyloid nucleation score was found to be 0.196 ± 0.49. Under SVGDIFSMWSVCSSVNDRCK stands 0.415 ± 0.21; under VFILALVELFGVQWLVVYNW, -0.42 ± 0.47. The substance AGAWIVDVTGKSMERYVGNK returned an amyloid nucleation score of 0.133 ± 0.61.

YWGYKTGQDCFSHSIRRRIL showed an amyloid nucleation score of -0.105 ± 0.85. TCFGL gave an amyloid nucleation score of -0.702 ± 1.2. The substance LRGFRFVAIMLSVYRKVKVD showed an amyloid nucleation score of -0.531 ± 0.34. Next, HDLHFFHGVAARQNVRRAYR: 0.724 ± 1; RGIKCPVSCKIASSRREWWV: 0.789 ± 0.37; ALAPPKNSFLLMLALILMLL: 0.093 ± 0.53. Under CEFGSGQALIYGYTMYTWTT stands 0.703 ± 0.49. Under CDKGPGCWVRMKQPGRLQMG stands 3.46 ± 0.076; under TCDRVNAIVEFWRCR, 1.46 ± 0.12; under SLVFQDRRYLTAFLGFVLWL, -0.476 ± 0.51. With LTQWPGEGKV, the amyloid nucleation score was -0.303 ± 0.8. VAEVKRFCELLLK had an amyloid nucleation score of -0.29 ± 1.7. As to FAPRSLGFYMNFFPRMMGQR, the amyloid nucleation score was -0.88 ± 1.5. Take IISRRCKML: the amyloid nucleation score stood at 1.37 ± 0.5. With DHMRYSTRRWQYPTSVVLSG, the amyloid nucleation score was 0.543 ± 0.25. In the case of WVWFCNEF, the amyloid nucleation score was -0.307 ± 0.57. For the substance SKGPWGLY, the amyloid nucleation score was -0.517 ± 1.1. Next, ILKATHGSHDIYPAWNGRIS: 3.2 ± 0.12; LCGSVRFRTGLECKQPSSCI: -1.02 ± 2.7; SYLKS: -0.4 ± 0.63. FSCMRWM: the amyloid nucleation score amounted to 0.73 ± 0.43. Under LATAEASRNYVGYFGWSFMN stands 0.098 ± 1.1; under GVLSIVVKSR, -2.2 ± 1.7; under TWKLATCIWRSLF, -0.238 ± 0.21. Next, SRYKTPSVDGVFCSALRGSG: 0.301 ± 0.61; RFSDT: -0.568 ± 0.3; MLVFNNFEPLFLFVSTWTCQ: 7.11 ± 0.06. Under WCWNAAQLSMVYSDMNFVAV stands 0.675 ± 1. TFACGKYVVPFCIYVDR had an amyloid nucleation score of -0.059 ± 0.34. Next, PFNQLDFTVAYYLSCAH: -0.482 ± 0.63.

As for GTFSGRKEL, the amyloid nucleation score was 0.463 ± 0.3. Under QRYKFLCLRRVENFGGYMSA stands 2.54 ± 0.24.

With STFAPNTSFGTIEIRFWICV, the amyloid nucleation score was -0.702 ± 1.1. RYWFLSYFHPANNYDDWKNC displayed an amyloid nucleation score of -1.03 ± 1.2. Substance SMYKMDMSLSTWCWFAWHDH displayed an amyloid nucleation score of -0.37 ± 0.45. Under GSDTNSNRLIMLMFGTVFCA stands 2.84 ± 0.16. The substance EKMHQSYLSRYYIDR yielded an amyloid nucleation score of 1.12 ± 0.54. Next, WTRKS: -0.067 ± 0.35; GLGRSLKGHIMTAMRCMQGV: -0.691 ± 0.44; QMVQYSRKSITFLGRPVLFS: 0.291 ± 0.55. In the case of MPCRARVRDNSLSWTEHTNC, the amyloid nucleation score was -0.248 ± 0.62. Regarding SIPFGIIMETCENLTDFAVY, the amyloid nucleation score is -0.74 ± 0.85. Turning to GKRDRMLQQIGWKLTYRCWN, the amyloid nucleation score turned out to be 0.522 ± 0.66. Under FNQINQGCRGCKQRTLVPDI stands 0.5 ± 0.67; under VSRLRSDWNL, 1.43 ± 0.3. As to IYLKWHFADY, the amyloid nucleation score was found to be 0.529 ± 0.45. For the substance VHSWQVVRYFRFLVLYSWDR, the amyloid nucleation score is 0.539 ± 0.42. In turn, FEKRALVSDSFYCNGVSRV yielded an amyloid nucleation score of 0.082 ± 0.24. Consider KSLVVACDVYSNALLRVMFR, for which the amyloid nucleation score was -0.291 ± 0.26. The substance FDSVHLRRSR returned an amyloid nucleation score of 0.701 ± 0.43.

The substance KVGYLYEAIGGKDDL gave an amyloid nucleation score of -0.605 ± 1.1. Next, RLTNELLGVSIRLTSWFTFH: 0.606 ± 0.48; RLICGPWNYCCQYKYNHLVL: 4 ± 0.12. Next, SYSFAWGS: 1.82 ± 0.45; YVIDGPSLSTCLVRV: 0.839 ± 0.5. Next, WYRQSAFNVLTDSLIILLVC: 4.99 ± 0.07. Substance SSFIAYASSDTWFTVKA came in with an amyloid nucleation score of 1.09 ± 0.36. Regarding IFVFWTALSTSHNGWGVPVM, the amyloid nucleation score entry is “inactive”.

As for LIMNFGGRLRVAGFGVLVMD, the amyloid nucleation score was found to be 2.09 ± 0.15.

Substance MNNKDDAVYVEHL had an amyloid nucleation score of 0.072 ± 0.23. Next, SVYRSVRGNRCWGLKIIMPG: -0.101 ± 1.1. As to RAGTLLPVLLDKVKRCSKLW, the amyloid nucleation score was 0.222 ± 0.7.
